Data published in US20220363757A1.

What was measured:
Assay in all cases: SPR, Fab over captured mutant LAG-3-Fc
[1] = molecular target: human LAG-3 domain 1-2 Fc fusion, chimeric construct #10 (mutated region AA 70-77) (human) (UniProt P18627)
[2] = molecular target: human LAG-3 domain 1-2 Fc fusion, chimeric construct #11 (mutated region AA 74-82) (human) (UniProt P18627)
[3] = molecular target: human LAG-3 domain 1-2 Fc fusion, chimeric construct #15 (mutated region AA 95-100) (human) (UniProt P18627)
[4] = molecular target: human LAG-3 domain 1-2 Fc fusion, chimeric construct #22 (mutated region AA 140-142) (human) (UniProt P18627)
[5] = molecular target: human LAG-3 domain 1-2 Fc fusion, chimeric construct #23 (mutated region AA 148-152) (human) (UniProt P18627)
[6] = molecular target: human LAG-3 domain 1-2 Fc fusion, chimeric construct #25 (mutated region AA 154-158) (human) (UniProt P18627)
[7] = molecular target: human LAG-3 domain 1-2 Fc fusion, chimeric construct #4 (mutated region AA 40-47) (human) (UniProt P18627)
[8] = molecular target: human LAG-3 domain 1-2 Fc fusion, chimeric construct #7 (mutated region AA 53-60) (human) (UniProt P18627)
[9] = molecular target: human LAG-3 domain 1-2 Fc fusion, chimeric construct #8 (mutated region AA 59-66) (human) (UniProt P18627)
[10] = molecular target: human LAG-3 domain 1-2 Fc fusion, point mutation #1 A40S (human) (UniProt P18627)
[11] = molecular target: human LAG-3 domain 1-2 Fc fusion, point mutation #13 R58A (human) (UniProt P18627)
[12] = molecular target: human LAG-3 domain 1-2 Fc fusion, point mutation #16 H65A (human) (UniProt P18627)
[13] = molecular target: human LAG-3 domain 1-2 Fc fusion, point mutation #19 D68A (human) (UniProt P18627)
[14] = molecular target: human LAG-3 domain 1-2 Fc fusion, point mutation #2 Q41A (human) (UniProt P18627)
[15] = molecular target: human LAG-3 domain 1-2 Fc fusion, point mutation #25 H78A (human) (UniProt P18627)
[16] = molecular target: human LAG-3 domain 1-2 Fc fusion, point mutation #27 L80A (human) (UniProt P18627)
[17] = molecular target: human LAG-3 domain 1-2 Fc fusion, point mutation #3 P43A (human) (UniProt P18627)
[18] = molecular target: human LAG-3 domain 1-2 Fc fusion, point mutation #31 P84A (human) (UniProt P18627)
[19] = molecular target: human LAG-3 domain 1-2 Fc fusion, point mutation #4 S45A (human) (UniProt P18627)
[20] = molecular target: human LAG-3 domain 1-2 Fc fusion, point mutation #42 R95A (human) (UniProt P18627)
[21] = molecular target: human LAG-3 domain 1-2 Fc fusion, point mutation #44 R97A (human) (UniProt P18627)
[22] = molecular target: human LAG-3 domain 1-2 Fc fusion, point mutation #55 S111A (human) (UniProt P18627)
[23] = molecular target: human LAG-3 domain 1-2 Fc fusion, point mutation #56 G112A (human) (UniProt P18627)
[24] = molecular target: human LAG-3 domain 1-2 Fc fusion, point mutation #57 R113A (human) (UniProt P18627)
[25] = molecular target: human LAG-3 domain 1-2 Fc fusion, point mutation #61 R119A (human) (UniProt P18627)
[26] = molecular target: human LAG-3 domain 1-2 Fc fusion, point mutation #62 Q121A (human) (UniProt P18627)
[27] = molecular target: human LAG-3 domain 1-2 Fc fusion, point mutation #68 Q128A (human) (UniProt P18627)
[28] = molecular target: human LAG-3 domain 1-2 Fc fusion, point mutation #69 R129A (human) (UniProt P18627)
[29] = molecular target: human LAG-3 domain 1-2 Fc fusion, point mutation #70 G130A (human) (UniProt P18627)
[30] = molecular target: human LAG-3 domain 1-2 Fc fusion, point mutation #76 D143A (human) (UniProt P18627)
[31] = molecular target: human LAG-3 domain 1-2 Fc fusion, point mutation #79 S159A (human) (UniProt P18627)
[32] = molecular target: human LAG-3 domain 1-2 Fc fusion, point mutation #80 R163A (human) (UniProt P18627)
[33] = molecular target: human LAG-3 domain 1-2 Fc fusion, point mutation #9 D52A (human) (UniProt P18627)

Chain of human LAG-3 domain 1-2 Fc fusion, point mutation #1 A40S (human) (P18627 23-266 A40S): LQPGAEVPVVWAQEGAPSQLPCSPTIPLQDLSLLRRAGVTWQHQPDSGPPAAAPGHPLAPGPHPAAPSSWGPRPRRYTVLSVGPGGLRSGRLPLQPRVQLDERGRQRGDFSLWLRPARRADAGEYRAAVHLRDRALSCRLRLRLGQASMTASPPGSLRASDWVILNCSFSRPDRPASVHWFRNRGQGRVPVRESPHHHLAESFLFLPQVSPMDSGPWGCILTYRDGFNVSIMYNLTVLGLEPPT
Chain of human LAG-3 domain 1-2 Fc fusion, point mutation #62 Q121A (human) (P18627 23-266 Q121A): as the sequence (P18627 23-266 A40S) above, with S18A, Q99A counted along it
Chain of human LAG-3 domain 1-2 Fc fusion, point mutation #42 R95A (human) (P18627 23-266 R95A): as the sequence (P18627 23-266 A40S) above, with S18A, R73A counted along it
Chain of human LAG-3 domain 1-2 Fc fusion, point mutation #80 R163A (human) (P18627 23-266 R163A): as the sequence (P18627 23-266 A40S) above, with S18A, R141A counted along it
Chain of human LAG-3 domain 1-2 Fc fusion, chimeric construct #10 (mutated region AA 70-77) (human) (P18627 other isoform, or with tags, fused parts or gaps mutant limits assumed): as the sequence (P18627 23-266 A40S) above, with S18A, G48D, P49Q, A52S, A53I, G55A counted along it
Chain of human LAG-3 domain 1-2 Fc fusion, point mutation #69 R129A (human) (P18627 23-266 R129A): as the sequence (P18627 23-266 A40S) above, with S18A, R107A counted along it
Chain of human LAG-3 domain 1-2 Fc fusion, point mutation #76 D143A (human) (P18627 23-266 D143A): as the sequence (P18627 23-266 A40S) above, with S18A, D121A counted along it
Chain of human LAG-3 domain 1-2 Fc fusion, point mutation #3 P43A (human) (P18627 23-266 P43A): as the sequence (P18627 23-266 A40S) above, with S18A, P21A counted along it
Chain of human LAG-3 domain 1-2 Fc fusion, point mutation #57 R113A (human) (P18627 23-266 R113A): as the sequence (P18627 23-266 A40S) above, with S18A, R91A counted along it
Chain of human LAG-3 domain 1-2 Fc fusion, chimeric construct #22 (mutated region AA 140-142) (human) (P18627 other isoform, or with tags, fused parts or gaps mutant): as the sequence (P18627 23-266 A40S) above, with S18A, R118T, A120K counted along it
Chain of human LAG-3 domain 1-2 Fc fusion, point mutation #79 S159A (human) (P18627 23-266 S159A): as the sequence (P18627 23-266 A40S) above, with S18A, S137A counted along it
Chain of human LAG-3 domain 1-2 Fc fusion, point mutation #19 D68A (human) (P18627 23-266 D68A): as the sequence (P18627 23-266 A40S) above, with S18A, D46A counted along it
Chain of human LAG-3 domain 1-2 Fc fusion, chimeric construct #15 (mutated region AA 95-100) (human) (P18627 other isoform, or with tags, fused parts or gaps mutant): as the sequence (P18627 23-266 A40S) above, with S18A, R73G, R76S, T78V counted along it
Chain of human LAG-3 domain 1-2 Fc fusion, chimeric construct #25 (mutated region AA 154-158) (human) (P18627 other isoform, or with tags, fused parts or gaps mutant): as the sequence (P18627 23-266 A40S) above, with S18A, R132P, A135D, L136F counted along it
Chain of human LAG-3 domain 1-2 Fc fusion, point mutation #44 R97A (human) (P18627 23-266 R97A): as the sequence (P18627 23-266 A40S) above, with S18A, R75A counted along it
Chain of human LAG-3 domain 1-2 Fc fusion, point mutation #61 R119A (human) (P18627 23-266 R119A): as the sequence (P18627 23-266 A40S) above, with S18A, R97A counted along it
Chain of human LAG-3 domain 1-2 Fc fusion, point mutation #27 L80A (human) (P18627 23-266 L80A): as the sequence (P18627 23-266 A40S) above, with S18A, L58A counted along it
Chain of human LAG-3 domain 1-2 Fc fusion, chimeric construct #7 (mutated region AA 53-60) (human) (P18627 other isoform, or with tags, fused parts or gaps mutant): as the sequence (P18627 23-266 A40S) above, with S18A, L31P, S32N, L33F, A37G, G38W counted along it
Chain of human LAG-3 domain 1-2 Fc fusion, point mutation #55 S111A (human) (P18627 23-266 S111A): as the sequence (P18627 23-266 A40S) above, with S18A, S89A counted along it

KD mutant/KD wild type [1]: 1 fold
KD mutant/KD wild type [2]: 1.1 fold
KD mutant/KD wild type [3]: 1.5 fold
KD mutant/KD wild type [4]: 1.2 fold
KD mutant/KD wild type [5]: 0.8 fold
KD mutant/KD wild type [6]: 0.7 fold
KD mutant/KD wild type [7]: 1.3 fold
KD mutant/KD wild type [8]: 1.4 fold
KD mutant/KD wild type [9]: 1.3 fold
KD mutant/KD wild type [10]: 1.1 fold
KD mutant/KD wild type [11]: 0.8 fold
KD mutant/KD wild type [12]: 1.2 fold
KD mutant/KD wild type [13]: 0.9 fold
KD mutant/KD wild type [14]: 1 fold
KD mutant/KD wild type [15]: 0.8 fold
KD mutant/KD wild type [16]: 0.7 fold
KD mutant/KD wild type [17]: 1.2 fold
KD mutant/KD wild type [18]: 0.6 fold
KD mutant/KD wild type [19]: 1 fold
KD mutant/KD wild type [20]: 1.9 fold
KD mutant/KD wild type [21]: 0.9 fold
KD mutant/KD wild type [22]: 0.9 fold
KD mutant/KD wild type [23]: 0.9 fold
KD mutant/KD wild type [24]: 0.8 fold
KD mutant/KD wild type [25]: 1.1 fold
KD mutant/KD wild type [26]: 0.9 fold
KD mutant/KD wild type [27]: 0.7 fold
KD mutant/KD wild type [28]: 1.2 fold
KD mutant/KD wild type [29]: 1.3 fold
KD mutant/KD wild type [30]: 1 fold
KD mutant/KD wild type [31]: 0.8 fold
KD mutant/KD wild type [32]: 1 fold
KD mutant/KD wild type [33]: 0.8 fold
Substance: Fab fragment of 25F7-Lag3.5 analogue
